Measured values from patent publication US20210023129A1, “PLATINUM PRODRUG PERFLUOROARYL PEPTIDE CONJUGATES” (MASSACHUSETTS INSTITUTE OF TECHNOLOGY, priority 2019, published 2021).
*1 amine or outer side, *2 acyl side, *3 side chain or, on linkers, in order; H or OH if unused. Where a SMILES comes first, the peptide text is derived from it. Bridges are numbered along the chain shown (N, C = ends). Perfluorobiphenyl(4,4') = Fc1c(F)c([*:1])c(F)c(F)c1-c1c(F)c(F)c([*:2])c(F)c1F; Suc = O=C(CCC(=O)[*:2])[*:1]

Experiments:
[1] = test system: G9 neurospheres (patient-derived glioma cells); details: for IC50: read-out: IC50 against the G9 cells, treated for 80 hours, CellTiter-Glo
Procedure: The cytotoxicity of the PtIV-M13 conjugate was evaluated against patient-derived glioma cells (GCs). To evaluate the in vitro efficacy of the conjugate, G9 neurospheres were treated with PtIV-M13, prodrug 4, and cisplatin for 80 hours. After treatment, the potency of the compounds was assessed by the CellTiter-Glo luminescent cell viability assay (FIGS. 2A and 2B). The assay involves lysis of the cells and quantitation of the amount of ATP present, which is directly proportional to the number of living cells in culture. […] The same experiment was repeated on G30 GCs.

[2] = test system: G30 GCs (patient-derived glioma cells); test: CellTiter-Glo luminescent cell viability assay, G30 GCs; assay type: cell-based, human; details: same experiment as G9 (80 hours, CellTiter-Glo), read-out: IC50 (potency) on G30 GCs
Procedure: The cytotoxicity of the PtIV-M13 conjugate was evaluated against patient-derived glioma cells (GCs). To evaluate the in vitro efficacy of the conjugate, G9 neurospheres were treated with PtIV-M13, prodrug 4, and cisplatin for 80 hours. After treatment, the potency of the compounds was assessed by the CellTiter-Glo luminescent cell viability assay (FIGS. 2A and 2B). The assay involves lysis of the cells and quantitation of the amount of ATP present, which is directly proportional to the number of living cells in culture. […] However, prodrug 4 was not potent, perhaps due to an inability to enter cells (FIG. 2A). As a result, in the follow-up in vitro experiment with another GC line, PtIV-L13 was used as a control instead as this should have similar properties to the PtIV-M13, only without the perfluoroaryl. The same experiment was repeated on G30 GCs.

[3] = Biodistribution in mice: platinum in organs by GFAAS; details: tail vein, 100 μL of 100 μM in saline, after five hours
Procedure: To study the biodistribution, 100 μL of a 100 μM solution of PtIV-M13, PtIV-L13, or cisplatin dissolved in normal saline were injected into the tail vein of mice. After five hours, the mice were sacrificed and the brain, heart, lungs, kidney, spleen and liver were removed. The amount of platinum in each organ was measured by dissolving a portion of the respective organ in nitric acid and then quantifying the amount of platinum by GFAAS (supporting information).

[4] = Pharmacokinetics in healthy mice: platinum in serum and brain by GFAAS; details: tail vein; for brain distribution of platinum over time / serum concentration of platinum over time: 100 μL of 100 μM (~2.5 mg/kg), 1, 2.5 and 5 hours
Procedure: Pharmacokinetic and biodistribution studies were performed in healthy mice. For pharmacokinetics, 100 μL of a 100 μM solution of PtIV-M13 or PtIV-L13 dissolved in saline (corresponding to a dose of ˜2.5 mg/kg) were injected into the tail veins of mice. The brain and a blood sample were isolated at 1, 2.5, and 5 hours. A portion of the brain was dissolved in nitric acid and the amount of platinum in the brain and serum were quantified by GFAAS. […] The error bars are the standard deviation from three different animals injected with the compound. […] The error bars are the standard deviation from three different animals injected with the compound.

| Structure (SMILES) | IC50 [1] [µM] | IC50 against the G9 cells ([1]; treated for 80 hours, CellTiter-Glo) | IC50 [2] [µM] | increase in the amount of platinum in the brain compared with cisplatin [3] [fold] | brain distribution of platinum over time [4] | serum concentration of platinum over time [4] | brain uptake versus linear control PtIV-L13 ([4]; ~2.5 mg/kg, brain platinum read-out) | stability in serum versus linear control PtIV-L13 ([4]; ~2.5 mg/kg, serum platinum read-out) |
| --- | --- | --- | --- | --- | --- | --- | --- | --- |
| N.N.[Cl][Pt][Cl] [cisplatin, reference compound] | 4.34 ± 0.66 |  |  |  |  |  |  |  |
| CCCCNC(=O)[O][Pt]([NH2])([NH2])([Cl])([Cl])[O]C(=O)CCC(=O)O [prodrug 4] |  | not potent |  |  |  |  |  |  |
| CC[C@H](C)[C@H](NC(=O)[C@H](CCCCN)NC(=O)CNC(=O)[C@H](CC(C)C)NC(=O)[C@H](CC(C)C)NC(=O)[C@H](Cc1ccc(O)cc1)NC(=O)CNC(=O)[C@H](C)NC(=O)CCC(=O)O)C(=O)N[C@@H](CC(N)=O)C(=O)N[C@@H](CC(C)C)C(=O)N[C@@H](CCCCN)C(=O)N[C@@H](C)C(=O)N[C@H]1CSc2c(F)c(F)c(c(F)c2F)-c2c(F)c(F)c(c(F)c2F)SC[C@@H](C(=O)N[C@@H](CC(C)C)C(N)=O)NC(=O)[C@H](CCCCN)NC(=O)[C@H](CCCCN)NC(=O)[C@H](C)NC(=O)[C@H](CC(C)C)NC(=O)[C@H](C)NC(=O)[C@H](C)NC1=O [PtIV-M13] (Suc-AGYLLGKINLKACAALAKKCL-NH2; linker 13-20 via Perfluorobiphenyl(4,4')) | 4.51 ± 0.22 |  | 4.04 | 15 | increased over time | decreased over time | more brain uptake | more stable in serum |
| CC[C@H](C)[C@H](NC(=O)[C@H](CCCCN)NC(=O)CNC(=O)[C@H](CC(C)C)NC(=O)[C@H](CC(C)C)NC(=O)[C@H](Cc1ccc(O)cc1)NC(=O)CNC(=O)[C@H](C)NC(=O)CCC(=O)O)C(=O)N[C@@H](CC(N)=O)C(=O)N[C@@H](CC(C)C)C(=O)N[C@@H](CCCCN)C(=O)N[C@@H](C)C(=O)N[C@@H](CO)C(=O)N[C@@H](C)C(=O)N[C@@H](C)C(=O)N[C@@H](CC(C)C)C(=O)N[C@@H](C)C(=O)N[C@@H](CCCCN)C(=O)N[C@@H](CCCCN)C(=O)N[C@@H](CO)C(=O)N[C@@H](CC(C)C)C(N)=O [PtIV-L13] (Suc-AGYLLGKINLKASAALAKKSL-NH2) |  |  | 28.8 |  | increased over time | decreased over time |  |  |
